Reference: US20210213165A1

Target: autologous blood coagulum (ABC) prepared from rat full blood
Test: rhBMP-6 mixed with rat full blood, coagulated for 60 min, serum removed; method of quantification not stated

- percent bound: > 95%
Substance: recombinant human BMP6 (rhBMP6) (from UniProt P22004 375-513) (ligand)
